From patent US20160348147A1, “SYSTEMS AND DEVICES FOR PROTEASE DETECTION BASED ON ENGINEERED POLYMERS AND BIOPOLYMERS AND METHODS OF USE” (DUKE UNIVERSITY, priority 2014, published 2016)

Experiments:
Format in all cases: biochemical
MMP-1 [1] = target: T1, MMP-1 (Homo sapiens, UniProt P03956); assay: Thermal behavior (OD350, DLS) after incubation with MMP-1; conditions: MMP-1 100 ng/mL, 12 h at 40° C.
T1 construct: Human MMP-1 catalytic domain (recombinant, produced in E. coli, 19.9 kDa, >95% purity); purchased Enzo Life Sciences (Farmingdale, N.Y.); host or cells: E. coli
T1 sequence (P03956 100-269 limits assumed): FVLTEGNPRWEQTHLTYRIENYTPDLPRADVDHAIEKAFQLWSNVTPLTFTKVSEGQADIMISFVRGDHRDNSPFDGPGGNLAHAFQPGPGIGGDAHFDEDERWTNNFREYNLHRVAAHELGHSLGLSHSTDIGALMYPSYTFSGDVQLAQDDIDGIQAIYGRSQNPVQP
Experimental: We performed the proteolysis reactions either in 100% protease buffer or in a mixture of human serum and buffer (40% (v/v) serum, 50% (v/v) buffer, 10% (v/v) ELP-substrate solution in water). The proteolysis buffer (100 mM HEPES, CaCl2 20 mM, MgCl2 1.0 mM, ZnCl2 100 μM, NaCl 0.5 M for diluted serum and 0.1 M for buffer solutions) was made experimentally in our lab based on previously published assays (Patterson, J. & Hubbell, J. A. Biomaterials 2010, 31, 7836-7845; Turk, B. E. et al., Nature Biotechnology 2001, 19, 661-667; Lowe, S. B. et al., Acs Nano 2012, 6, 851-857). We investigated proteolysis in two ways. In the first approach, we incubated solutions of the ELP-substrate fusion with MMP-1 (100 ng/mL) for 12 h at 40° C. temperature and measured the optical density at 350 nm (OD350) before and after the incubation. In the second approach, we incubated the ELP-substrate fusion with varying concentrations of MMP-1 (0.02 ng/mL to 200 ng/mL) in buffer or in diluted human serum, at 40° C. or 37° C. respectively, a temperature that is above the CMT of the ELP, and monitored the changes OD350 as a function of time (kinetic study). For the kinetic studies, we added the enzyme to the solution after the optical density of the solution reached a steady-state value and repeated the experiments at least three times. […]

[2] = target: T2, Human MMP-1 catalytic domain (Homo sapiens, UniProt P03956); assay: Time-dependent aggregation (OD350) of ELP-substrate fusion with MMP-1 in proteolysis buffer; conditions: 50 ng/mL MMP-1, without the inhibitor, proteolysis buffer, 40° C., 100 μM
T2 construct: Human MMP-1 catalytic domain (recombinant, produced in E. coli, 19.9 kDa, >95% purity); purchased Enzo Life Sciences (Farmingdale, N.Y.); host or cells: E. coli
T2 sequence (P03956 100-269 limits assumed): T1 sequence (P03956 100-269 limits assumed)

MMP-1 [3] = target: T1, MMP-1; assay: Kinetic study of MMP-1 cleavage (SDS-PAGE, Lineweaver-Burke plot); conditions: substrate 25, 50, 100, 200 μM, enzyme 20 ng/mL, buffer, 40° C.
Experimental: We used mass spectrometry to examine the cleavage of the MMP-1 substrate peptide in the ELP-substrate fusion by measuring the molecular weight of the polypeptides prior to, and after incubation with MMP-1. We incubated 0.5 mL of 100 μM polypeptide in proteolysis buffer with 100 ng/mL of MMP-1 for 2 h at 25° C. […] For example, an enzymatic reaction can be written in general form as:
In which V0 is the initial rate of the enzymatic reaction at a given substrate concentration. Using equation Eq. 4, we can calculate Vmax by plotting 1/V0 versus 1/[S] at different substrate concentrations and a constant enzyme concentration and then calculate kcat by implementing equation Eq. 3.
We performed a series of kinetic studies in which the concentration of the substrate in the buffer solution was chosen to be 25, 50, 100, and 200 μM. We then added 20 ng/mL of enzyme to each of the solutions and kept all the solutions at a constant temperature (40′C). […] We quantified these changes by image analysis (ImageJ software) and used them to quantify the amount of product for each substrate concentration at each sampling time. We then calculated the initial rate of the reaction (V0) by using the concentration of the converted substrate and the time of reaction.
We then used equation Eq. 4 and plotted 1/[S] versus 1/[V0] […] From Vmax and equation Eq. 3, we calculated kcat to be equal to 8.0±1.9 s^−1. […]

**Q.** “M(GVGVP)60GDGQVPMSMRGGDDEGQQDDEEGY (MGVGVPGDGQVPMSMRGGDDEGQQDDEEGY) [ELP-substrate fusion, recombinant polypeptide: ELP fused to MMP-1 substrate and charged hydrophilic peptide]” was tested. Which “temperature above which large aggregates form after incubation with MMP-1” value (MMP-1 [1]; 100 μM) did it give?
**A.** The value was “≈ 37 °C”.

**Q.** What about the “particle diameter after incubation with MMP-1” value (MMP-1 [1]; DLS at 38° C.) of the same substance?
**A.** The value was “over a micron”.

**Q.** What about the aggregation time [2] of the same substance?
**A.** Its aggregation time is “less than 50 min”.

**Q.** And the kcat (MMP-1 [3])?
**A.** Its kcat is 8.0 ± 1.9 s⁻¹.
